Experiment [1] has as its target T1, glucocorticoid-induced tumor necrosis factor receptor (GITR) (human, UniProt Q9Y5U5 26-241).
T1 chain: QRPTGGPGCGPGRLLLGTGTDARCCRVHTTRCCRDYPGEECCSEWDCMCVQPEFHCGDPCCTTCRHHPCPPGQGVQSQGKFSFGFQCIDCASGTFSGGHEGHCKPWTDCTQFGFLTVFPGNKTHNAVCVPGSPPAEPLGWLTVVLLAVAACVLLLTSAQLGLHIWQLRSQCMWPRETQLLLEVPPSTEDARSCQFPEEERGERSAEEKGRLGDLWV
Nature of the experiment: flow cytometry, GITR-expressing 293T cells. (In general: Flow cytometry measures light scatter and fluorescence of single cells or particles in a stream.)

In experiment [2] the target is T1, glucocorticoid-induced tumor necrosis …. Nature of the experiment: BLI. On the technique in general: Biolayer interferometry detects binding as a change in optical thickness at a sensor tip.
The target in experiment [3] is T2, glucocorticoid-induced tumor necrosis factor receptor (GITR) (human, UniProt Q9Y5U5 26-241).
T2 construct: whole, on cells; also called GITR expressing 293T cells
T2 sequence (looked up): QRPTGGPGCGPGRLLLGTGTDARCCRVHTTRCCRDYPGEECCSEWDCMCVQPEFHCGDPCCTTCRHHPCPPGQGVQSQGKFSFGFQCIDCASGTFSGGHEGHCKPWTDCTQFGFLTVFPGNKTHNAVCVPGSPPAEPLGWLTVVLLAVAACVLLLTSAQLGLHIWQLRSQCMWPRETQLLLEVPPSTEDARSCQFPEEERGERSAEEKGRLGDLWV
Nature of the experiment: flow cytometry on GITR-expressing 293T cells, FITC anti-human Fc detection.

Consider eleven molecules from patent US20170304444A1 (Dana-Farber, published 2017).

A word on the EC50: it is the concentration that produces a half-maximal response. As usually defined, the Kd is the equilibrium constant for the complex coming apart. Read a high Kd as a looser complex.

B1: mAb 3-167 (antibody, V domains shown)
VH: EVQLVQSGSELKKPGASVKVSCKASGYTFTGYYMHWVRQAPGQGLEWMGWINPNSGGTNYAQKFQGRVTVTTDTSTSTAYMELRSLRSDDTAVYYCAREGVHSDAFDVWGQGTTVTVSS
VL: ETTLTQSPATLSVSPGERATLSCRASQSVYTNLAWYQQKPGQAPSLLIYGASSRATGIPDRFSGSGSGTDFTLTISRLEPEDFAVYYCQQYGSSHFTFGPGTKVDIK
Regarding B1, the midpoint of the response in experiment [1], the EC50, lay at 28.2 nM. Moreover, the equilibrium dissociation constant (Kd) in experiment [2] stood at 0.855 nM. The binding result in experiment [3] is “binds”.

B2: mAb #7-192 (antibody, V domains shown)
VH: EVQLVESGAEVKKPGASVKVSCKTSGYTFTDHYIHWVRQAPGQGLEWMGWINPSSGGTEYAQKFQGRVTMTRDTPISTAYMDLSGLRSDDTAVYYCARETIGGWNALDVWGQGTLVTVSS
VL: MPVLTQPPSVSVAPGQTARITCGGHKIGTKSVHWYQQKPGQAPVLVVYDDRDRPSGIPERFSGSNSGGTATLTISRVEAGDEADYYCQVWDSNSDHVVFGGGTKLTVLS
Take B2: in experiment [1], it took 19.3 nM to reach a half-maximal effect (EC50). Also, the Kd in experiment [2] stood at 3.13 nM. Also, the binding result in experiment [3] is recorded as “binds”.

B3: mAb #1-81 (antibody, V domains shown)
VH: EVQLVESGAEVKKPGASVKVSCKTSGYTFTDHYIHWVRQAPGQGLEWMGWINPSSGGTEYAQKFQGRVTMTRDTPISTAYMDLSGLRSDDTAVYYCARETIGGWNALDVWGQGTLVTVSS
VL: QPVLTQPPSASGTPGQRVTISCSGSSSNIGINTVNWYQQLPRTPPKLLIYTNNQRPSGVPDRFSGSKSDTSASLAISGLQSEDEADYYCAAWDDTLNGPLFGGGTKVTVLG
notes: Found as scFv by phage display
In experiment [1], B3 displayed an EC50 of 22.4 nM. This molecule also came in with a dissociation constant Kd in experiment [2] of 1.66 nM. The binding result in experiment [3] is listed as “binds”.

B4: mAb #17-60 (antibody, V domains shown)
VH: EVQLVESGAEVKKPGASVKVSCKTSGYTFTDHYIHWVRQAPGQGLEWMGWINPSSGGTEYAQKFQGRVTMTRDTPISTAYMDLSGLRSDDTAVYYCARETIGGWNALDVWGQGTLVTVSS
VL: QPVLTQPPSASGTPGQRVTISCSGSSSNIGINTVNWYQQLPRTPPKLLIYTNNQRPSGVPDRFSGSKSDTSASLAISGLQSEDEADYYCAAWDDTLNGPLFGGGTKVTVLG
With B4, in experiment [1], the EC50 is 15.1 nM. The molecule further showed an equilibrium dissociation constant (Kd) in experiment [2] of 1.14 nM.

B5: mAb #5-139 (antibody, V domains shown)
VH: EVQLVQSGAEVKKPGASVKVSCKTSGYTFTDHYIHWVRQAPGQGLEWMGWINPSSGGTEYAQKFQGRVTMTRDTPISTAYMDLSGLRSDDTAVYYCARETIGGWNALDVWGQGTTVTVSS
VL: QSVLTQPPSASGSPGQRVTMSCSGSSSTIGRHSVNWYQQLPGTAPKLLIYANNQRPSGVPGRFSASKSDTSASLAISGLRSEDEANYYCAAWDDSLSGVLFGGGTKVTVLG
Regarding B5, the EC50 in experiment [1] worked out at 16.8 nM. Further, the Kd in experiment [2] came out at 0.42 nM. Also, in experiment [3], the binding result is reported as “binds”.

B6: mAb #12-46 (antibody, V domains shown)
VH: EVQLVQSGAEVKKPGASVKVSCKASGYTFTGYYMHWVRQAPGQGLEWMGWINPKTGDTNYAQKFQGRVALSRDTSFNTAYMDLSSLRSDDTAVYYCAREGLSTSSPLDYWGQGTLVTVSS
VL: QPGLTQPPSVSVAPGQSAKITCGENELATNIVHWYQQKPGQAPVLVIYHDNDRPSGIPERFSGSNAGNTATLTISRVEAGDEADFYCQLWDSASDQVVFGGGTTLTVLG
Regarding B6, in experiment [1], the EC50 was found to be 72.4 nM. The molecule further returned a Kd in experiment [2] of 5.07 nM. For the same molecule, the binding result in experiment [3] is given as “binds”.

B7: mAb #11-126 (antibody, V domains shown)
VH: EVQLVESGAEVKKPGASVKVSCKASGYTFTGYYMHWVRQAPGQGLEWLGWVNPHSGGTNYAQKFQGRVTMTRDTSISTAYMELSRLRSDDTAVYYCARETDISANYHFDYWGQGTLVTVSS
VL: QSALTQPASVSGSPGQSITISCTGTSSDVGSYNAVSWYQHHPGKAPKLMIYEVSKRPSGVSNRFSGSKSGNTASLTISGLRAEDEADYYCATWDDSLKGPVFGGGTKLTVLG
As for B7, the EC50 in experiment [1] was determined as 13 nM. In experiment [2], this molecule displayed a dissociation constant (Kd) of 2.8 nM. In experiment [3], the binding result was “binds”.

B8: mAb #13-169 (antibody, V domains shown)
VH: EVQLVQSGAEVKRPGASLKVSCKASGYTFTSHYIHWVRQAPGQGLEWMGWINTGNGDTRYSQRFQGRVTVTRDTSASTVYMELSSLRSEDTAVYYCARESSSSWFVAFDVWGQGTTVTVSS
VL: QPVLTQPPSVSLAPGQTARITCSEKNIRSKRVHWYQQKPGQAPVLVMYSDNGRRSGIPDRFSGSNSGNTATLTITRVEAGDEGDFYCQVWDPITDQVVFGGGTKLTVLG
B8 gave an EC50 in experiment [1] of 47 nM. The same molecule showed a dissociation constant (Kd) in experiment [2] of 3.21 nM. For the same molecule, the binding result in experiment [3] is on record as “binds”.

B9: mAb #15-68 (antibody, V domains shown)
VH: EVQLVQSGAEVKKPGASVNVSCKASGYTFTGYYMHWVRQAPGQGLEWMGWINPNSGGTNYAQKFQGRVTVTTDTSNSTAYMELNRLKSDDTAVYYCAREGSGDLDSLYMDVWGKGTMVTVSS
VL: SYELTQPPSVSVAPGQTARITCGANNIGSKSVHWYQQKPGQAPVLVVYDDSDRPSGIPERFSGSNSGNTATLTITRVEAGDEADYYCQLWDGGSDVVFGGGTKLTVLG
The molecule B9 came in with an EC50 in experiment [1] of 26.5 nM. This molecule also yielded a dissociation constant Kd in experiment [2] of 3.81 nM.

B10: mAb #14-182 (antibody, V domains shown)
VH: QVQLVQSGAEVKQPGSSVKVSCKASGYTFTGYYMHWVRQAPGEGLEWLGWINPHSGGTNYAQKFQGRVTITADKSTSTAYMELSSLRSEDTAVYYCAREIVVVTAPAAAAMDVWGQGTLVTVSS
VL: QSVLTQPPSASGSPGQSVTISCTGSSSDVAIYDRVSWYQQPPGTAPKLILYDVHDRPSGVPDRFSGSKSGNTASLTISGLQAEDEADYYCSSYTTSGTFVFGSGTKVTVLG
Turning to B10, the EC50 in experiment [1] was 20.5 nM. In experiment [2], this molecule yielded a Kd of 1.82 nM. The binding result in experiment [3] is reported as “binds”.

B11: mAb #10-116 (antibody, V domains shown)
VH: EVQLVQSGADVKKPGASVKVSCKASGYTFTGYYIHWVRQAPGQGLEWMGWINPNSGGTNYAQKFQGRVTMTRDTSISTAYMELSRLRSDDTAVYFCVREVKDYYYYMDVWGRGTTVTVSS
VL: NFMLTQPHSVSESPGKTVTISCTRSSGSIASNSVQWYLQRPGSAPTTLIFDNKQRPSGVPDRFSGSIDSSSNSASLSISGLTTEDEADYFCQSYDDSEQVVFGGGTKLTVLS
Molecule B11 registered an EC50 in experiment [1] of 28.3 nM. In experiment [2], this molecule gave an equilibrium dissociation constant (Kd) of 4.77 nM. Moreover, the binding result in experiment [3] was “binds”.
